Literature values as cited in patent publication US12653792B2, “Synthetic lipids for mRNA delivery” (Trustees of Tufts College, priority 2019, dated 2026).

Biological target: T1, ANGPTL3 (Homo sapiens, UniProt Q9Y5C1)
T1 sequence (Q9Y5C1 17-460): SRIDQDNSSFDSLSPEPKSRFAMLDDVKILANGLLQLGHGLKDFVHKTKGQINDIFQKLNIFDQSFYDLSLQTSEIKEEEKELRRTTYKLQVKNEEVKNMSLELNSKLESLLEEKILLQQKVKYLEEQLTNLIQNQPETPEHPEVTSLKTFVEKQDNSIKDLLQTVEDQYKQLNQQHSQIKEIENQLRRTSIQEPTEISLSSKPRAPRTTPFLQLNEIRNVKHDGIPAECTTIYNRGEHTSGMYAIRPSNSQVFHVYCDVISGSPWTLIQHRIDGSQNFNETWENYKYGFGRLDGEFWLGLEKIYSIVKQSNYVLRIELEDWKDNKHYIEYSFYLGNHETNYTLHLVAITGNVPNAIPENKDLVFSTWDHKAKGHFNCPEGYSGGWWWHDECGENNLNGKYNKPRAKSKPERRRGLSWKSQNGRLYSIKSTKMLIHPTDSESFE
Settings: healthy human volunteers, clinical trial

Substance: evinacumab: ANGPTL3 targeting monoclonal antibody
- LDL-C and TG levels: effective reduction in LDL-C and TG levels
